# Results as given in patent publication US20230118307A1, “THERAPEUTIC USE OF LONG-ACTING CONJUGATE OF TRIPLE AGONIST HAVING ACTIVITIES TO ALL OF GLUCAGON/GLP-1/GIP RECEPTORS FOR LUNG DISEASE” (HANMI PHARM. CO., LTD., priority 2020, published 2023).
# Positions of bridges follow the written chain, without caps; N, C: chain ends. Non-standard residues stand in square brackets, D forms with d. No end group written: not given here. *: point of attachment. Acetyl(2-(4-imidazolyl)) = O=C(Cc1c[nH]cn1)*; Aib = CC(C)(N)C(=O)O
# T1: human GIP receptor (human, UniProt P48546 22-466)
# T1 sequence (looked up): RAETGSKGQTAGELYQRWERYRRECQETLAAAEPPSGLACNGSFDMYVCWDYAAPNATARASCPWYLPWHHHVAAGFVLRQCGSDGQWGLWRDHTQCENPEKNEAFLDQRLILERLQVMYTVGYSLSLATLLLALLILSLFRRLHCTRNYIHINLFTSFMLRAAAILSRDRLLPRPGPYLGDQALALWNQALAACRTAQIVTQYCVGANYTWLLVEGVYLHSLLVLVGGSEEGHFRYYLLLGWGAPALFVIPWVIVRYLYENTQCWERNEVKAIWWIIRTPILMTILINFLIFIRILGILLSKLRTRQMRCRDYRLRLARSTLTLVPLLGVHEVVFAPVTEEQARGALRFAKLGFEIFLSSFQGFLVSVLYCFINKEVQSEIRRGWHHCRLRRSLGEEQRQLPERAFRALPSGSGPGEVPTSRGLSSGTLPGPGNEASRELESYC
# Key:
# Assay in all cases: cell-based or functional assay
# [1] = biological target: human GLP-1 receptor (human, UniProt P43220 24-463)
# [2] = biological target: human GCG receptor (human, UniProt P47871 26-477)
# [3] = biological target: T1, human GIP receptor
# Chain of human GCG receptor (P47871 26-477): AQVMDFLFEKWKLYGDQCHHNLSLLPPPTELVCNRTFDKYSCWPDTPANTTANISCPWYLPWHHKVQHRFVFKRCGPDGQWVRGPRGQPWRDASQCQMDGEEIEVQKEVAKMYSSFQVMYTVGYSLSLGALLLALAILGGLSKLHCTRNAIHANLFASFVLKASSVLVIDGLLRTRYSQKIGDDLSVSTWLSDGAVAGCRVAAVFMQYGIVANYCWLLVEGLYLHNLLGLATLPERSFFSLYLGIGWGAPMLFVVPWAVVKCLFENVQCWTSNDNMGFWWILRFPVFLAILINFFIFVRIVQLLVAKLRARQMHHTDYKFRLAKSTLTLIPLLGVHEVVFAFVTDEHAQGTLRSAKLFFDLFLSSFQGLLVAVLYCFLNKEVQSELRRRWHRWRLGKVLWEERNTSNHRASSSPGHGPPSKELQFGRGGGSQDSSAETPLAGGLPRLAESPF
binder,measurement,setting,value
H[Aib]QGTFTSDVSSYLDGQAAKEFIAWLVKGC [triple agonist of SEQ ID NO: 1],In vitro Activity Compared to Native Peptide (%) vs. GLP-1,[1],3.2%
same,In vitro Activity Compared to Native Peptide (%) vs. Glucagon,[2],< 0.1%
same,In vitro Activity Compared to Native Peptide (%) vs. GIP,[3],< 0.1%
H[Aib]QGTFTSDVSSYLLGQQQKEFIAWLVKGC [triple agonist of SEQ ID NO: 4],In vitro Activity Compared to Native Peptide (%) vs. GLP-1,[1],8.5%
same,In vitro Activity Compared to Native Peptide (%) vs. Glucagon,[2],< 0.1%
same,In vitro Activity Compared to Native Peptide (%) vs. GIP,[3],< 0.1%
H[Aib]QGTFTSDYSKYLDEKRQKEFVNWLLAQKC (bridge 16-20) [triple agonist of SEQ ID NO: 34],In vitro Activity Compared to Native Peptide (%) vs. GLP-1,[1],19.1%
same,In vitro Activity Compared to Native Peptide (%) vs. Glucagon,[2],0.92%
same,In vitro Activity Compared to Native Peptide (%) vs. GIP,[3],0.6%
H[Aib]QGTFTSDYSIAMDEIHQKDFVNWLLNTKC (bridge 16-20) [triple agonist of SEQ ID NO: 35],In vitro Activity Compared to Native Peptide (%) vs. GLP-1,[1],7.5%
same,In vitro Activity Compared to Native Peptide (%) vs. Glucagon,[2],< 0.1%
same,In vitro Activity Compared to Native Peptide (%) vs. GIP,[3],1.3%
H[Aib]QGTFTSDYSKYLCEKRQKEFVQWLLNGGPSSGAPPPSG (bridge 16-20) [triple agonist of SEQ ID NO: 36],In vitro Activity Compared to Native Peptide (%) vs. GLP-1,[1],37.4%
same,In vitro Activity Compared to Native Peptide (%) vs. Glucagon,[2],0.39%
same,In vitro Activity Compared to Native Peptide (%) vs. GIP,[3],0.2%
H[Aib]QGTFTSDYSKYLDECRQKEFVQWLLNGGPSSGAPPPSG (bridge 16-20) [triple agonist of SEQ ID NO: 37],In vitro Activity Compared to Native Peptide (%) vs. GLP-1,[1],236%
same,In vitro Activity Compared to Native Peptide (%) vs. Glucagon,[2],6.21%
same,In vitro Activity Compared to Native Peptide (%) vs. GIP,[3],2.2%
[Acetyl(2-(4-imidazolyl))][Aib]QGTFTSDKSSYLDERAAQDFVQWLLDGGPSSGAPPPSS [triple agonist of SEQ ID NO: 38],In vitro Activity Compared to Native Peptide (%) vs. GLP-1,[1],2.3%
H[Aib]QGTFTSDYSKYLDGQHAQCFVAWLLAGGGPSSGAPPPS [triple agonist of SEQ ID NO: 39],In vitro Activity Compared to Native Peptide (%) vs. GLP-1,[1],13.9%
same,In vitro Activity Compared to Native Peptide (%) vs. Glucagon,[2],0.53%
same,In vitro Activity Compared to Native Peptide (%) vs. GIP,[3],< 0.1%
H[Aib]QGTFTSDKSKYLDERACQDFVQWLLDGGPSSGAPPPS [triple agonist of SEQ ID NO: 40],In vitro Activity Compared to Native Peptide (%) vs. GLP-1,[1],75.2%
same,In vitro Activity Compared to Native Peptide (%) vs. Glucagon,[2],< 0.1%
same,In vitro Activity Compared to Native Peptide (%) vs. GIP,[3],< 0.1%
H[Aib]QGTFTSDKSKYLDECAAQDFVQWLLDGGPSSGAPPPS [triple agonist of SEQ ID NO: 41],In vitro Activity Compared to Native Peptide (%) vs. GLP-1,[1],34.3%
same,In vitro Activity Compared to Native Peptide (%) vs. Glucagon,[2],< 0.1%
same,In vitro Activity Compared to Native Peptide (%) vs. GIP,[3],< 0.1%
Y[Aib]QGTFTSDYSKYLDEKRAKEFVQWLLDHHPSSGQPPPSC (bridge 16-20) [triple agonist of SEQ ID NO: 42],In vitro Activity Compared to Native Peptide (%) vs. GLP-1,[1],33.9%
same,In vitro Activity Compared to Native Peptide (%) vs. Glucagon,[2],206%
same,In vitro Activity Compared to Native Peptide (%) vs. GIP,[3],7.8%
Y[Aib]QGTFTSDYSKYLDEKRAKEFVQWLLDHHCSSGQPPPS (bridge 16-20) [triple agonist of SEQ ID NO: 43],In vitro Activity Compared to Native Peptide (%) vs. GLP-1,[1],12.6%
same,In vitro Activity Compared to Native Peptide (%) vs. Glucagon,[2],88.4%
same,In vitro Activity Compared to Native Peptide (%) vs. GIP,[3],3.7%
HGQGTFTSDCSKQLDGQAAQEFVAWLLAGGPSSGAPPPS [triple agonist of SEQ ID NO: 44],In vitro Activity Compared to Native Peptide (%) vs. GLP-1,[1],1.3%
same,In vitro Activity Compared to Native Peptide (%) vs. Glucagon,[2],< 0.1%
same,In vitro Activity Compared to Native Peptide (%) vs. GIP,[3],< 0.1%
H[Aib]QGTFTSDVSSYLLGQQQKEFIAWLVKGGGPSSGAPPPSC (ends and bridges not checked) [triple agonist of SEQ ID NO: 5],In vitro Activity Compared to Native Peptide (%) vs. GLP-1,[1],42.1%
same,In vitro Activity Compared to Native Peptide (%) vs. Glucagon,[2],< 0.1%
same,In vitro Activity Compared to Native Peptide (%) vs. GIP,[3],< 0.1%
HGQGTFTSDCSKYMDGQAAQDFVAWLLAGGPSSGAPPPS [triple agonist of SEQ ID NO: 45],In vitro Activity Compared to Native Peptide (%) vs. GLP-1,[1],6.6%
same,In vitro Activity Compared to Native Peptide (%) vs. Glucagon,[2],< 0.1%
same,In vitro Activity Compared to Native Peptide (%) vs. GIP,[3],< 0.1%
